{"source": "paper PMC10821904", "about": "(2024)", "key": {"[1]": {"biological_target": "LayV-G extracellular domain (Langya henipavirus attachment glycoprotein G, residues 63-624) (Langya henipavirus (LayV))", "assay": "SEC + other: non-reducing and reducing SDS-PAGE"}, "[2]": {"biological_target": "Full-length LayV-G (Langya henipavirus attachment glycoprotein G) (Langya henipavirus (LayV))", "assay": "cryo-EM structure"}, "[3]": {"biological_target": "T1, human ephrinB3 extracellular domain (amino acids 1-224) (human, UniProt Q15768 28-224)", "T1 chain": "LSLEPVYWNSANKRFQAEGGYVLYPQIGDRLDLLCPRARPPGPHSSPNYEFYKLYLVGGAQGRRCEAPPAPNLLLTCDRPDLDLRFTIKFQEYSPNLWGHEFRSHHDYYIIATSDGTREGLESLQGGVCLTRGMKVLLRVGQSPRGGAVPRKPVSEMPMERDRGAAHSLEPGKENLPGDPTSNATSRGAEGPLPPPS", "assay": "BLI"}, "[4]": {"biological_target": "T2, human ephrinB2 extracellular domain (amino acids 1-227) (human, UniProt P52799 28-227)", "T2 chain": "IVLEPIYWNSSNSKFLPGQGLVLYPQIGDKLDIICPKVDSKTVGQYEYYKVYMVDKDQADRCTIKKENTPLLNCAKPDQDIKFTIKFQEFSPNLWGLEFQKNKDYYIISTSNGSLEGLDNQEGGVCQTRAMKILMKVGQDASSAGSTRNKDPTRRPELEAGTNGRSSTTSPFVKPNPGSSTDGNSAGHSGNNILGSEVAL", "assay": "BLI"}}, "data": [{"molecule": "LayV-G extracellular domain (Langya henipavirus attachment glycoprotein G, residues 63-624) (domain or fragment)", "values": [{"measurement": "stoichiometry N", "setting": "[1]", "value": 4}]}, {"molecule": "Full-length LayV-G (Langya henipavirus attachment glycoprotein G) (natural protein)", "values": [{"measurement": "stoichiometry N", "setting": "[2]", "value": 4}]}, {"molecule": "NiV-G ectodomain (Nipah virus attachment glycoprotein G) (domain or fragment) QNYTRSTDNQAVIKDALQGIQQQIKGLADKIGTEIGPKVSLIDTSSTITIPANIGLLGSKISQSTASINENVNEKCKFTLPPLKIHECNISCPNPLPFREYRPQTEGVSNLVGLPNNICLQKTSNQILKPKLISYTLPVVGQSGTCITDPLLAMDEGYFAYSHLERIGSCSRGVSKQRIIGVGEVLDRGDEVPSLFMTNVWTPPNPNTVYHCSAVYNNEFYYVLCAVSTVGDPILNSTYWSGSLMMTRLAVKPKSNGGGYNQHQLALRSIEKGRYDKVMPYGPSGIKQGDTLYFPAVGFLVRTEFKYNDSNCPITKCQYSKPENCRLSMGIRPNSHYILRSGLLKYNLSDGENPKVVFIEISDQRLSIGSPSKIYDSLGQPVFYQASFSWDTMIKFGDVLTVNPLVVNWRNNTVISRPGQSQCPRFNTCPEICWEGVYNDAFLIDRINWISAGVFLDSNQTAENPVFTVFKDNEILYRAQLASEDTNAQKTITNCFLLKNKIWCISLVEIYDTGDNVIRPKLFAVKIPEQCT", "values": [{"measurement": "Kd", "setting": "[3]", "value": 9.3, "unit": "nM"}, {"measurement": "Kd", "setting": "[4]", "value": 0.19, "unit": "nM"}]}]}
